According to publication doi:10.1101/2025.10.29.685445 (bioRxiv, 2025):

What was measured:
[1] = molecular target: T1, HCoV-HKU1 RBD (residues 310-606 of isolate N5), as used in BLI (Human coronavirus HKU1, isolate N5, UniProt Q0ZME7); experiment: BLI; conditions: both partners purified
T1 construct: source: FreeStyle 293-F, transfected (PEI), purified (Protein A, Superdex 200)

[2] = molecular target: T2, HCoV-HKU1 RBD (residues 310-606 of isolate N5), Fc- and His-tagged (Human coronavirus HKU1, isolate N5, UniProt Q0ZME7); experiment: SPR; conditions: both partners purified
T2 construct: also called HCoV-HKU1 S1-CTD; not shown: Fc-tag, C-terminal, kept; 8X HisTag, C-terminal, kept
T2 sequence (Q0ZME7 310-606): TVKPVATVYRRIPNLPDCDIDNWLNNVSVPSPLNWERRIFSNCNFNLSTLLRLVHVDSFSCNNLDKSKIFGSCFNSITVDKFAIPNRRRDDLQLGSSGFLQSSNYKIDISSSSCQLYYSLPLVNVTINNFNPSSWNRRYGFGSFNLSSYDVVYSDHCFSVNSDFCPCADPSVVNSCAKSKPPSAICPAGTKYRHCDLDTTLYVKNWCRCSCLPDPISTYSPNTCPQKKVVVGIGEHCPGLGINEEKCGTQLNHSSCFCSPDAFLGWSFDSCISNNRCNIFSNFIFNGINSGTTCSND

T1 sequence (Q0ZME7 310-606): as above

B1: H501-022 IgG (antibody, V domains shown)
VH: QGTLKESGPMLVKPTQTLTLTCNFSGFSLSTSGVGVGWIRQPPGKALECLALIYWNDDQRYSPSLKTRLTITKDTSKNQVVLTMTNMDPVDTATYYCVYSMSRPVAGGVIDHWGQGTLVTVSS
VL: DIQLTQSPSSLSASEGDRVTITCWASQNIRGYLNWYQQKPGKAPKLLIYATSTLESGVPSRFSGSGSVTDYTLTISSLQPEDFATYSCQQSYSSPPTFGGGTKVDIK
notes: also called mAb H501–022; H-022; copies: 2 + 2
[1]
  Kd: 2.01 nM
  koff: 0.000555 s⁻¹
  kon: 276000 M⁻¹ s⁻¹

B2: H501-018 IgG (antibody, V domains shown)
VH: QVQLQESGPGLVKPSETLSLTCSVSGGSISNFYWSWIRQPPGKGLEWIGYIYYTGSSEYNPSLKSRVILSVDTSKNHFSLKLSSVTAADTAIYYCARGTWSRRLEVDLWGQGTLVTVSS
VL: QSVLTQPPSASGTPGQRVTISCSGSSSNIGSNYVYWYQQLPGTAPKLLIYRSIQRPSGVPDRFSGSKSGTSASLAISGLRSEDEADYYCATWDDSLNSWVFAGGTKLTVL
notes: also called mAb H501–018; H-018; copies: 2 + 2
[1]
  Kd: 0.37 nM
  koff: 0.000105 s⁻¹
  kon: 283000 M⁻¹ s⁻¹

B3: H501-008 Fab (Fab, V domains shown)
VH: QVQLVQSGGGVVQPGRSLRLSCAVSGFTLDRYAMHWVRQAPGKALEWVALMSADGREQYYAESVKGRFTFSRDSSKNTLYLQMHNLRTDDSSVYFCAREGPMYYDAWSGRSYYNNYALDVWGRGTTVAVSS
VL: QSVLTQPPSVSAAPGQTVTISCSGSSSNIGDNYVSWYQQVPGTAPRLLVYDNNRRPLGIPDRFSGSKSGTSATLAIAGLQTGDEADYYCGTWDSSLSAGVFGGGTKLTVV
notes: also called H501–08 Fab
[2]
  Kd: 0.161 nM

B4: H501-008 IgG (antibody, V domains shown)
VH: QVQLVQSGGGVVQPGRSLRLSCAVSGFTLDRYAMHWVRQAPGKALEWVALMSADGREQYYAESVKGRFTFSRDSSKNTLYLQMHNLRTDDSSVYFCAREGPMYYDAWSGRSYYNNYALDVWGRGTTVAVSS
VL: QSVLTQPPSVSAAPGQTVTISCSGSSSNIGDNYVSWYQQVPGTAPRLLVYDNNRRPLGIPDRFSGSKSGTSATLAIAGLQTGDEADYYCGTWDSSLSAGVFGGGTKLTVV
notes: also called H501–08; mAb H501–008; copies: 2 + 2
[1]
  Kd: 0.937 nM
  koff: 0.000315 s⁻¹
  kon: 336000 M⁻¹ s⁻¹
